Source: patent US20170088610A1 (RINAT NEUROSCIENCE, published 2017)

B1: 8L2-6D5 Fab with CDR H3 mutation D109G (Fab, V domains shown)
VH: QVQLQESGPGLVKPSETLSLTCTVSGFSLIGYDINWIRQPPGKGLEWIGMIWGDGTTDYNSALKSRVTISKDTSKNQFSLKLSSVTAADTAVYYCARGGYYYGTSYYFGYWGQGTLVTVS
VL: DIQMTQSPSSLSASVGDRVTITCRASQDISNHLNWYQQKPGKAPKLLIYYISRFHSGVPSRFSGSGSGTDFTFTISSLQPEDIATYYCQQSKTLPYTFGQGTKLEIKR
notes: See note of m8
B2: 8L2-6D5 Fab with CDR H3 mutation T104S (Fab, V domains shown)
VH: QVQLQESGPGLVKPSETLSLTCTVSGFSLIGYDINWIRQPPGKGLEWIGMIWGDGTTDYNSALKSRVTISKDTSKNQFSLKLSSVTAADTAVYYCARGGYYYGSSYYFDYWGQGTLVTVS
VL: DIQMTQSPSSLSASVGDRVTITCRASQDISNHLNWYQQKPGKAPKLLIYYISRFHSGVPSRFSGSGSGTDFTFTISSLQPEDIATYYCQQSKTLPYTFGQGTKLEIKR
notes: See note of m8; also called T1045 (so in the source)
B3: 8L2-6D5 Fab with CDR L3 mutation S91E (Fab, V domains shown)
VH: QVQLQESGPGLVKPSETLSLTCTVSGFSLIGYDINWIRQPPGKGLEWIGMIWGDGTTDYNSALKSRVTISKDTSKNQFSLKLSSVTAADTAVYYCARGGYYYGTSYYFDYWGQGTLVTVS
VL: DIQMTQSPSSLSASVGDRVTITCRASQDISNHLNWYQQKPGKAPKLLIYYISRFHSGVPSRFSGSGSGTDFTFTISSLQPEDIATYYCQQEKTLPYTFGQGTKLEIKR
notes: E91 is the E3 residue, so it is kept; See note of m8
B4: 8L2-6D5 Fab with CDR H3 mutation Y106T (Fab, V domains shown)
VH: QVQLQESGPGLVKPSETLSLTCTVSGFSLIGYDINWIRQPPGKGLEWIGMIWGDGTTDYNSALKSRVTISKDTSKNQFSLKLSSVTAADTAVYYCARGGYYYGTSTYFDYWGQGTLVTVS
VL: DIQMTQSPSSLSASVGDRVTITCRASQDISNHLNWYQQKPGKAPKLLIYYISRFHSGVPSRFSGSGSGTDFTFTISSLQPEDIATYYCQQSKTLPYTFGQGTKLEIKR
notes: See note of m8
B5: 8L2-6D5 Fab with CDR H3 mutation Y101W (Fab, V domains shown)
VH: QVQLQESGPGLVKPSETLSLTCTVSGFSLIGYDINWIRQPPGKGLEWIGMIWGDGTTDYNSALKSRVTISKDTSKNQFSLKLSSVTAADTAVYYCARGGYWYGTSYYFDYWGQGTLVTVS
VL: DIQMTQSPSSLSASVGDRVTITCRASQDISNHLNWYQQKPGKAPKLLIYYISRFHSGVPSRFSGSGSGTDFTFTISSLQPEDIATYYCQQSKTLPYTFGQGTKLEIKR
notes: W101 is the E3 residue, so it is kept; See note of m8
B6: 8L2-6D5 Fab with CDR H3 mutation Y110S (Fab, V domains shown)
VH: QVQLQESGPGLVKPSETLSLTCTVSGFSLIGYDINWIRQPPGKGLEWIGMIWGDGTTDYNSALKSRVTISKDTSKNQFSLKLSSVTAADTAVYYCARGGYYYGTSYYFDSWGQGTLVTVS
VL: DIQMTQSPSSLSASVGDRVTITCRASQDISNHLNWYQQKPGKAPKLLIYYISRFHSGVPSRFSGSGSGTDFTFTISSLQPEDIATYYCQQSKTLPYTFGQGTKLEIKR
notes: See note of m8
B7: 8L2-6D5 Fab with CDR H3 mutation Y106R (Fab, V domains shown)
VH: QVQLQESGPGLVKPSETLSLTCTVSGFSLIGYDINWIRQPPGKGLEWIGMIWGDGTTDYNSALKSRVTISKDTSKNQFSLKLSSVTAADTAVYYCARGGYYYGTSRYFDYWGQGTLVTVS
VL: DIQMTQSPSSLSASVGDRVTITCRASQDISNHLNWYQQKPGKAPKLLIYYISRFHSGVPSRFSGSGSGTDFTFTISSLQPEDIATYYCQQSKTLPYTFGQGTKLEIKR
notes: See note of m8
B8: 8L2-6D5 Fab with CDR H3 mutation Y110T (Fab, V domains shown)
VH: QVQLQESGPGLVKPSETLSLTCTVSGFSLIGYDINWIRQPPGKGLEWIGMIWGDGTTDYNSALKSRVTISKDTSKNQFSLKLSSVTAADTAVYYCARGGYYYGTSYYFDTWGQGTLVTVS
VL: DIQMTQSPSSLSASVGDRVTITCRASQDISNHLNWYQQKPGKAPKLLIYYISRFHSGVPSRFSGSGSGTDFTFTISSLQPEDIATYYCQQSKTLPYTFGQGTKLEIKR
notes: See note of m8
B9: 8L2-6D5 Fab with CDR H3 mutation Y106M (Fab, V domains shown)
VH: QVQLQESGPGLVKPSETLSLTCTVSGFSLIGYDINWIRQPPGKGLEWIGMIWGDGTTDYNSALKSRVTISKDTSKNQFSLKLSSVTAADTAVYYCARGGYYYGTSMYFDYWGQGTLVTVS
VL: DIQMTQSPSSLSASVGDRVTITCRASQDISNHLNWYQQKPGKAPKLLIYYISRFHSGVPSRFSGSGSGTDFTFTISSLQPEDIATYYCQQSKTLPYTFGQGTKLEIKR
notes: See note of m8
B10: 8L2-6D5 Fab with CDR H3 mutation S105T (Fab, V domains shown)
VH: QVQLQESGPGLVKPSETLSLTCTVSGFSLIGYDINWIRQPPGKGLEWIGMIWGDGTTDYNSALKSRVTISKDTSKNQFSLKLSSVTAADTAVYYCARGGYYYGTTYYFDYWGQGTLVTVS
VL: DIQMTQSPSSLSASVGDRVTITCRASQDISNHLNWYQQKPGKAPKLLIYYISRFHSGVPSRFSGSGSGTDFTFTISSLQPEDIATYYCQQSKTLPYTFGQGTKLEIKR
notes: See note of m8
B11: 8L2-6D5 Fab with CDR H3 mutation D109N (Fab, V domains shown)
VH: QVQLQESGPGLVKPSETLSLTCTVSGFSLIGYDINWIRQPPGKGLEWIGMIWGDGTTDYNSALKSRVTISKDTSKNQFSLKLSSVTAADTAVYYCARGGYYYGTSYYFNYWGQGTLVTVS
VL: DIQMTQSPSSLSASVGDRVTITCRASQDISNHLNWYQQKPGKAPKLLIYYISRFHSGVPSRFSGSGSGTDFTFTISSLQPEDIATYYCQQSKTLPYTFGQGTKLEIKR
notes: See note of m8
B12: 8L2-6D5 Fab with CDR H3 mutation Y107F (Fab, V domains shown)
VH: QVQLQESGPGLVKPSETLSLTCTVSGFSLIGYDINWIRQPPGKGLEWIGMIWGDGTTDYNSALKSRVTISKDTSKNQFSLKLSSVTAADTAVYYCARGGYYYGTSYFFDYWGQGTLVTVS
VL: DIQMTQSPSSLSASVGDRVTITCRASQDISNHLNWYQQKPGKAPKLLIYYISRFHSGVPSRFSGSGSGTDFTFTISSLQPEDIATYYCQQSKTLPYTFGQGTKLEIKR
notes: See note of m8
B13: 8L2-6D5 Fab with CDR H3 mutation Y100L (Fab, V domains shown)
VH: QVQLQESGPGLVKPSETLSLTCTVSGFSLIGYDINWIRQPPGKGLEWIGMIWGDGTTDYNSALKSRVTISKDTSKNQFSLKLSSVTAADTAVYYCARGGLYYGTSYYFDYWGQGTLVTVS
VL: DIQMTQSPSSLSASVGDRVTITCRASQDISNHLNWYQQKPGKAPKLLIYYISRFHSGVPSRFSGSGSGTDFTFTISSLQPEDIATYYCQQSKTLPYTFGQGTKLEIKR
notes: See note of m8
B14: 8L2-6D5 Fab with CDR H3 mutation Y100R (Fab, V domains shown)
VH: QVQLQESGPGLVKPSETLSLTCTVSGFSLIGYDINWIRQPPGKGLEWIGMIWGDGTTDYNSALKSRVTISKDTSKNQFSLKLSSVTAADTAVYYCARGGRYYGTSYYFDYWGQGTLVTVS
VL: DIQMTQSPSSLSASVGDRVTITCRASQDISNHLNWYQQKPGKAPKLLIYYISRFHSGVPSRFSGSGSGTDFTFTISSLQPEDIATYYCQQSKTLPYTFGQGTKLEIKR
notes: See note of m8
B15: 8L2-6D5 Fab with CDR H3 mutation F108W (Fab, V domains shown)
VH: QVQLQESGPGLVKPSETLSLTCTVSGFSLIGYDINWIRQPPGKGLEWIGMIWGDGTTDYNSALKSRVTISKDTSKNQFSLKLSSVTAADTAVYYCARGGYYYGTSYYWDYWGQGTLVTVS
VL: DIQMTQSPSSLSASVGDRVTITCRASQDISNHLNWYQQKPGKAPKLLIYYISRFHSGVPSRFSGSGSGTDFTFTISSLQPEDIATYYCQQSKTLPYTFGQGTKLEIKR
notes: See note of m8
B16: 8L2-6D5 Fab with CDR H3 mutation Y110K (Fab, V domains shown)
VH: QVQLQESGPGLVKPSETLSLTCTVSGFSLIGYDINWIRQPPGKGLEWIGMIWGDGTTDYNSALKSRVTISKDTSKNQFSLKLSSVTAADTAVYYCARGGYYYGTSYYFDKWGQGTLVTVS
VL: DIQMTQSPSSLSASVGDRVTITCRASQDISNHLNWYQQKPGKAPKLLIYYISRFHSGVPSRFSGSGSGTDFTFTISSLQPEDIATYYCQQSKTLPYTFGQGTKLEIKR
notes: See note of m8
B17: 8L2-6D5 Fab with CDR H3 mutation Y110R (Fab, V domains shown)
VH: QVQLQESGPGLVKPSETLSLTCTVSGFSLIGYDINWIRQPPGKGLEWIGMIWGDGTTDYNSALKSRVTISKDTSKNQFSLKLSSVTAADTAVYYCARGGYYYGTSYYFDRWGQGTLVTVS
VL: DIQMTQSPSSLSASVGDRVTITCRASQDISNHLNWYQQKPGKAPKLLIYYISRFHSGVPSRFSGSGSGTDFTFTISSLQPEDIATYYCQQSKTLPYTFGQGTKLEIKR
notes: See note of m8
B18: 8L2-6D5 Fab with CDR H3 mutation S105A (Fab, V domains shown)
VH: QVQLQESGPGLVKPSETLSLTCTVSGFSLIGYDINWIRQPPGKGLEWIGMIWGDGTTDYNSALKSRVTISKDTSKNQFSLKLSSVTAADTAVYYCARGGYYYGTAYYFDYWGQGTLVTVS
VL: DIQMTQSPSSLSASVGDRVTITCRASQDISNHLNWYQQKPGKAPKLLIYYISRFHSGVPSRFSGSGSGTDFTFTISSLQPEDIATYYCQQSKTLPYTFGQGTKLEIKR
notes: See note of m8
B19: 8L2-6D5 Fab with CDR H3 mutation G103A (Fab, V domains shown)
VH: QVQLQESGPGLVKPSETLSLTCTVSGFSLIGYDINWIRQPPGKGLEWIGMIWGDGTTDYNSALKSRVTISKDTSKNQFSLKLSSVTAADTAVYYCARGGYYYATSYYFDYWGQGTLVTVS
VL: DIQMTQSPSSLSASVGDRVTITCRASQDISNHLNWYQQKPGKAPKLLIYYISRFHSGVPSRFSGSGSGTDFTFTISSLQPEDIATYYCQQSKTLPYTFGQGTKLEIKR
notes: A103 is the E3 residue, so it is kept; See note of m8

What was measured:
[1] = molecular target: T1, human nerve growth factor (human, UniProt P01138 122-241); assay: BIAcore SPR screen, Fab over immobilised human NGF
T1 construct: Immobilised on CM5 chips for BIAcore, soluble in neuron survival assays; also called human NGF; hNGF
Experimental: (§1) A screening BIAcore assay was optimized to determine the affinity of Fab clones from libraries. Supernatants of small culture lysates were injected at […] for 2 min. Dissociation times of 10 to 15 minutes were used for determination of a single exponential dissociation rate (koff) using BIAevaluation software. […] Clones showing improved (slower) koff values were expressed at large scale and full kinetic parameters, kₒₙ and koff, were determined on purified protein.
(§2) 20-80 clones from each small library were screened using BIAcore analysis as described herein. Samples were simultaneously analyzed by BIAcore for binding affinity to NGF in one channel of the BIAcore chip and for presence of Fab by binding to a penta-histag antibody in another channel of the sensor chip, to detect the his tag at the C terminus of the heavy chain. Clones that expressed protein were classified as having the same affinity, worse affinity, better affinity or no binding, using koff to classify: The results of this analysis are shown in Table 5.

[2] = molecular target: T1, human nerve growth factor; assay: BIAcore SPR screen, Fab over immobilised human NGF; KD calculated from koff with kon 4e4 M-1s-1
Experimental: as §1, §2

T1 sequence (P01138 122-241 limits assumed): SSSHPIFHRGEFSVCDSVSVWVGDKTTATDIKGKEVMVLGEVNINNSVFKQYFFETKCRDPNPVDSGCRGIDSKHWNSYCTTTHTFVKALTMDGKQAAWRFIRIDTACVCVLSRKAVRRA

| Binder | koff [1] [s⁻¹] | Kd [2] [nM] |
| --- | --- | --- |
| B1 | 0.001 | 25 |
| B2 | 0.0022 | 55 |
| B3 | 0.00025 | 6 |
| B4 | 0.002 | 50 |
| B5 | 0.00056 | 14 |
| B6 | 0.0015 | 37 |
| B7 | 0.0016 | 40 |
| B8 | 0.0017 | 42 |
| B9 | 0.0027 | 67 |
| B10 | 0.00064 | 16 |
| B11 | 0.0015 | 37 |
| B12 | 0.0014 | 35 |
| B13 | 0.0012 | 30 |
| B14 | 0.0011 | 27 |
| B15 | 0.00122 | 30 |
| B16 | 0.0014 | 35 |
| B17 | 0.0016 | 40 |
| B18 | 0.00051 | 13 |
| B19 | 0.00016 | 4 |
